Results published in patent US20260201064A1 (ISU ABXIS, published 2026).
Positions count from the first letter of the chain named.

T1: recombinant human ASM protein (human, UniProt P17405 47-630)
T1 construct: Recombinant human ASM in solution; also called acid sphingomyelinase (ASM) protein
T1 sequence: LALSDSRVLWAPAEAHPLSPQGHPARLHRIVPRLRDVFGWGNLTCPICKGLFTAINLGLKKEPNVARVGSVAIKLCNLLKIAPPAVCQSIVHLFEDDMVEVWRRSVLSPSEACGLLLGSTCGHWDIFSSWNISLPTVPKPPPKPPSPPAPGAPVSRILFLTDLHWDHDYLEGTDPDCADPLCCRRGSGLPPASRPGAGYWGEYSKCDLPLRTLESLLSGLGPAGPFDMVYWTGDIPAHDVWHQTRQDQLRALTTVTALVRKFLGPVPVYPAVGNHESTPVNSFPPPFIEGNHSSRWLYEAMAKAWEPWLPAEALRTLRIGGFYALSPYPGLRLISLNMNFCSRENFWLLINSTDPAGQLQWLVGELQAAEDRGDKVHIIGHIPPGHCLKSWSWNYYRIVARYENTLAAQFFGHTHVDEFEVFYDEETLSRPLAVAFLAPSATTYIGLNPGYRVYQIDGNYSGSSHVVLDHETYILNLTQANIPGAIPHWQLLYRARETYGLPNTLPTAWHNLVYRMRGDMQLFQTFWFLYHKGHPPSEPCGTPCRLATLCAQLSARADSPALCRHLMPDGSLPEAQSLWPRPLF

B1: #9104a-A1 (antibody, human IgG4 S228P, lambda, V domains shown)
VH: EVQLLESGGGLVQPGGSLRLSCAASGFTFSNYYMSWVRQAPGKGLEWVSGIYYGNGIPYYADSVKDRFTISRDNSKNTLYLQMNSLRAEDTAVYYCARDTPGFDYWGQGTLVTVSS
VL: QSVLTQPPSASGTPGQRVTISCTGSSSNIGNNAVNWYQQLPGTAPKLLIYYDMFRPGGVPDRFSGSKSGTSASLAISGLRSEDEADYYCGAWDYSLSAYVFGGGTKLTVLG
notes: VH of #9104v-H10 with VL of #9104v-L20; full-length IgG, lambda
B2: #9104a-B2 (antibody, human IgG4 S228P, lambda, V domains shown)
VH: B1 VH with N55S, D66E
VL: B1 VL with G57N
notes: VH of #9104v-H11 with VL of #9104v-L21; full-length IgG, lambda
B3: #9104a-A4 (antibody, human IgG4 S228P, lambda, V domains shown)
VH: B1 VH with Q39R, N55S, I57T, D62A, D66G
VL: B1 VL
notes: VH of #9104v-H17 with VL of #9104v-L20; full-length IgG, lambda
B4: #9104a-A2 (antibody, human IgG4 S228P, lambda, V domains shown)
VH: B1 VH with N55S, D66E
VL: B1 VL
notes: VH of #9104v-H11 with VL of #9104v-L20; full-length IgG, lambda
B5: #9104a-A5 (antibody, human IgG4 S228P, lambda, V domains shown)
VH: B1 VH with N55S, I57V, D66G
VL: B1 VL
notes: VH of #9104v-H19 with VL of #9104v-L20; full-length IgG, lambda
B6: #9104a-B5 (antibody, human IgG4 S228P, lambda, V domains shown)
VH: B1 VH with N55S, I57V, D66G
VL: B1 VL with G57N
notes: VH of #9104v-H19 with VL of #9104v-L21; full-length IgG, lambda
B7: #9104a-A6 (antibody, human IgG4 S228P, lambda, V domains shown)
VH: B1 VH with I51T, G54D, N55S, I57Y, P58V, D66G
VL: B1 VL
notes: VH of #9104v-H27 with VL of #9104v-L20; full-length IgG, lambda
B8: #9104a-B6 (antibody, human IgG4 S228P, lambda, V domains shown)
VH: B1 VH with I51T, G54D, N55S, I57Y, P58V, D66G
VL: B1 VL with G57N
notes: VH of #9104v-H27 with VL of #9104v-L21; full-length IgG, lambda
B9: #9104a-B3 (antibody, human IgG4 S228P, lambda, V domains shown)
VH: B1 VH with N55S, D62N, D66G
VL: B1 VL with G57N
notes: VH of #9104v-H13 with VL of #9104v-L21; full-length IgG, lambda
B10: #9104a-B7 (antibody, human IgG4 S228P, lambda, V domains shown)
VH: B1 VH with I51V, N55S, I57T, D66G
VL: B1 VL with G57N
notes: VH of #9104v-H31 with VL of #9104v-L21; full-length IgG, lambda
B11: #9104a-A3 (antibody, human IgG4 S228P, lambda, V domains shown)
VH: B1 VH with N55S, D62N, D66G
VL: B1 VL
notes: VH of #9104v-H13 with VL of #9104v-L20; full-length IgG, lambda
B12: #9104a-A8 (antibody, human IgG4 S228P, lambda, V domains shown)
VH: B1 VH with I51V, G54P, N55S, I57N, D66G
VL: B1 VL
notes: VH of #9104v-H33 with VL of #9104v-L20; full-length IgG, lambda
B13: #9104a-A7 (antibody, human IgG4 S228P, lambda, V domains shown)
VH: B1 VH with I51V, N55S, I57T, D66G
VL: B1 VL
notes: VH of #9104v-H31 with VL of #9104v-L20; full-length IgG, lambda
B14: #9104a-B4 (antibody, human IgG4 S228P, lambda, V domains shown)
VH: B1 VH with Q39R, N55S, I57T, D62A, D66G
VL: B1 VL with G57N
notes: VH of #9104v-H17 with VL of #9104v-L21; full-length IgG, lambda
B15: #9104a-B1 (antibody, human IgG4 S228P, lambda, V domains shown)
VH: B1 VH
VL: B1 VL with G57N
notes: VH of #9104v-H10 with VL of #9104v-L21; full-length IgG, lambda

Each binder was assayed against T1, recombinant human ASM protein (assay: BLI (Octet), antibody on AHC sensor).
Procedure: The binding affinity, to the ASM protein, of the produced antibodies specifically binding to the ASM protein and the interactive dynamics therebetween were measured using an Octet® QK384 system (Pall Life Sciences).
First, an antibody specifically binding to the ASM protein produced in Example 1 was captured using an anti-human IgG Fc capture (AHC) biosensor, and 1.25, 2.5, 5, 10, or 20 nM recombinant human ASM protein solution was added thereto. […] The association constant (Kₐ), dissociation constant (Kd), and equilibrium dissociation constant (KD) for each antibody were determined using Octet® analysis software (Pall Life® Sciences). As a result, the binding affinities, to the human ASM protein, of the antibodies with mutations in the heavy chain CDR regions of the antibody #9104 as depicted in Table 1 are shown in Table 5, and the binding affinities, to the human ASM protein, of the antibodies with mutations of the light chain CDR regions in the antibody #9104 as depicted in Table 2 are shown in Table 6.
After the small-scale expression in the ExpiCHO cell line as described above, the binding affinity to the human ASM protein was investigated as described in Experimental Example 1. Specifically, the antibody produced by a combination of #9104v-H33 heavy chain variable region and #9104v-L23 light chain variable region was not expressed and thus excluded in the analysis of binding affinity to ASM protein.

Kd	koff	kon	Binder
0.0518 nM	1.14e-05 s⁻¹	220000 M⁻¹ s⁻¹	B1
0.114 nM	3.03e-05 s⁻¹	266000 M⁻¹ s⁻¹	B2
0.162 nM	3.54e-05 s⁻¹	219000 M⁻¹ s⁻¹	B3
0.0961 nM	1.98e-05 s⁻¹	206000 M⁻¹ s⁻¹	B4
0.16 nM	3.93e-05 s⁻¹	246000 M⁻¹ s⁻¹	B5
< 0.001 nM	< 1e-07 s⁻¹	243000 M⁻¹ s⁻¹	B6
0.768 nM	6.96e-05 s⁻¹	90600 M⁻¹ s⁻¹	B7
1.14 nM	9.41e-05 s⁻¹	82900 M⁻¹ s⁻¹	B8
0.0351 nM	8.23e-06 s⁻¹	234000 M⁻¹ s⁻¹	B9
0.163 nM	4.07e-05 s⁻¹	250000 M⁻¹ s⁻¹	B10
0.0277 nM	5.48e-06 s⁻¹	198000 M⁻¹ s⁻¹	B11
0.237 nM	4.51e-05 s⁻¹	191000 M⁻¹ s⁻¹	B12
0.0354 nM	8.13e-06 s⁻¹	230000 M⁻¹ s⁻¹	B13
0.153 nM	3.74e-05 s⁻¹	245000 M⁻¹ s⁻¹	B14
0.137 nM	3.45e-05 s⁻¹	253000 M⁻¹ s⁻¹	B15
